Experimental data published in the Immune Epitope Database (IEDB).

What was measured:
[1] = biological target: HLA-A*02:01; assay: IEDB peptide-MHC binding, purified MHC/direct/fluorescence; filed as Kd, often an IC50 or EC50 that approximates it; ≥ and ≤ were set here for values at or beyond the usual limits of such assays
[2] = biological target: HLA-A*02:03; assay: as above
[3] = biological target: HLA-A*02:11; assay: as above
[4] = biological target: HLA-A*02:12; assay: as above
[5] = biological target: HLA-A*02:16; assay: as above
[6] = biological target: HLA-A*02:19; assay: as above
[7] = biological target: HLA-A*03:01; assay: as above
[8] = biological target: HLA-A*26:01; assay: as above
[9] = biological target: HLA-A*29:02; assay: as above
[10] = biological target: HLA-B*15:01; assay: as above
[11] = biological target: HLA-B*15:17; assay: as above
[12] = biological target: HLA-B*18:01; assay: as above
[13] = biological target: HLA-B*27:03; assay: as above
[14] = biological target: HLA-B*46:01; assay: as above
[15] = biological target: HLA-B*51:01; assay: as above
[16] = biological target: HLA-B*57:01; assay: as above
[17] = biological target: HLA-B*08:02; assay: as above; conditions: source organism: Escherichia coli O157:H7 str. EC869
[18] = biological target: HLA-A*02:03; assay: IEDB peptide-MHC binding, purified MHC/competitive/fluorescence; filed as Kd, often an IC50 or EC50 that approximates it; ≥ and ≤ were set here for values at or beyond the usual limits of such assays; conditions: source organism: Human immunodeficiency virus 1
[19] = biological target: HLA-A*30:01; assay: as above
[20] = biological target: HLA-A*69:01; assay: IEDB peptide-MHC binding, purified MHC/direct/fluorescence; filed as Kd, often an IC50 or EC50 that approximates it; ≥ and ≤ were set here for values at or beyond the usual limits of such assays
[21] = biological target: HLA-C*03:03; assay: as above
[22] = biological target: HLA-A*01:01; assay: as above
[23] = biological target: HLA-A*11:01; assay: as above; conditions: source organism: Lake Victoria marburgvirus - Popp
[24] = biological target: HLA-A*31:01; assay: as above; conditions: source organism: Lake Victoria marburgvirus - Popp
[25] = biological target: HLA-A*68:02; assay: as above
[26] = biological target: HLA-B*07:02; assay: as above; conditions: source organism: Lake Victoria marburgvirus - Popp
[27] = biological target: HLA-B*08:01; assay: as above; conditions: source organism: Orthomarburgvirus marburgense
[28] = biological target: HLA-B*15:09; assay: as above
[29] = biological target: HLA-B*27:05; assay: as above
[30] = biological target: HLA-B*40:01; assay: as above; conditions: source organism: Lake Victoria marburgvirus - Popp
[31] = biological target: HLA-B*58:01; assay: as above
[32] = biological target: HLA-B*48:01; assay: IEDB peptide-MHC binding, purified MHC/competitive/fluorescence; filed as Kd, often an IC50 or EC50 that approximates it; ≥ and ≤ were set here for values at or beyond the usual limits of such assays
[33] = biological target: HLA-B*44:02; assay: IEDB peptide-MHC binding, purified MHC/direct/fluorescence; filed as Kd, often an IC50 or EC50 that approximates it; ≥ and ≤ were set here for values at or beyond the usual limits of such assays; conditions: source organism: Yellow fever virus
[34] = biological target: HLA-A*23:01; assay: as above; conditions: source organism: Influenza A virus (A/Memphis/1/1986(H3N2))
[35] = biological target: HLA-A*24:03; assay: as above
[36] = biological target: HLA-B*15:42; assay: IEDB peptide-MHC binding, purified MHC/competitive/fluorescence; filed as Kd, often an IC50 or EC50 that approximates it; ≥ and ≤ were set here for values at or beyond the usual limits of such assays; conditions: source organism: Mycobacterium tuberculosis variant bovis BCG str. Pasteur 1173P2
[37] = biological target: HLA-B*45:06; assay: as above; conditions: source organism: Mycobacterium tuberculosis variant bovis BCG str. Pasteur 1173P2
[38] = biological target: HLA-B*83:01; assay: as above; conditions: source organism: Mycobacterium tuberculosis variant bovis BCG str. Pasteur 1173P2
[39] = biological target: HLA-B*39:01; assay: IEDB peptide-MHC binding, purified MHC/direct/fluorescence; filed as Kd, often an IC50 or EC50 that approximates it; ≥ and ≤ were set here for values at or beyond the usual limits of such assays; conditions: source organism: Entamoeba histolytica HM-1:IMSS
[40] = source organism: Listeria monocytogenes serotype 4b str. H7858
[41] = source organism: Francisella tularensis subsp. holarctica LVS
[42] = source organism: Francisella tularensis subsp. tularensis FSC033
[43] = source organism: Lake Victoria marburgvirus - Popp
[44] = source organism: Orthomarburgvirus marburgense
[45] = source organism: Yellow fever virus
[46] = source organism: Influenza A virus (A/Memphis/1/1986(H3N2))
[47] = source organism: Entamoeba histolytica HM-1:IMSS

FPDGKPFTL
Kd [1, 40]: ≥ 20 µM | Kd [2, 40]: ≥ 20 µM | Kd [3, 40]: ≥ 20 µM | Kd [4, 40]: ≥ 20 µM | Kd [5, 40]: ≥ 20 µM | Kd [6, 40]: ≥ 20 µM | Kd [7, 40]: ≥ 20 µM | Kd [8, 40]: ≥ 20 µM | Kd [9, 40]: ≥ 20 µM | Kd [10, 40]: ≥ 20 µM | Kd [11, 40]: ≥ 20 µM | Kd [12, 40]: ≥ 20 µM | Kd [13, 40]: ≥ 20 µM | Kd [14, 40]: ≥ 20 µM | Kd [15, 40]: ≥ 20 µM | Kd [16, 40]: ≥ 20 µM

RMKMRRPHL
Kd [17]: 2.36 µM

RSLYNTIAVLY
Kd [18]: 0.679 µM | Kd ([19]; source organism: Human immunodeficiency virus 1): 1.91 µM

FLYDISISL
Kd [1, 41]: 0.0011 µM | Kd [3, 42]: ≤ 0.001 µM | Kd [4, 42]: 0.003 µM | Kd [6, 42]: 0.007 µM | Kd [20, 41]: 0.0157 µM | Kd ([21]; source organism: Francisella tularensis subsp. tularensis FSC198): ≤ 0.001 µM

GELRKAICL
Kd [22, 43]: ≥ 20 µM | Kd [1, 43]: ≥ 20 µM | Kd [23]: ≥ 20 µM | Kd [8, 44]: ≥ 20 µM | Kd [24]: ≥ 20 µM | Kd [25, 43]: ≥ 20 µM | Kd [20, 43]: ≥ 20 µM | Kd [26]: ≥ 20 µM | Kd [27]: ≥ 20 µM | Kd [28, 44]: ≥ 20 µM | Kd [11, 43]: ≥ 20 µM | Kd [12, 43]: 9 µM | Kd [29, 43]: ≥ 20 µM | Kd [30]: 0.074 µM | Kd [16, 43]: ≥ 20 µM | Kd [31, 43]: ≥ 20 µM | Kd [19, 44]: ≥ 20 µM | Kd [32, 44]: ≥ 20 µM

IQYVIRAQL
Kd [22, 45]: ≥ 20 µM | Kd [7, 45]: ≥ 20 µM | Kd [28, 45]: ≥ 20 µM | Kd [29, 45]: ≥ 20 µM | Kd [33]: ≥ 20 µM | Kd [14, 45]: ≥ 20 µM | Kd [16, 45]: ≥ 20 µM | Kd [31, 45]: ≥ 20 µM

NHDGIQAGV
Kd [1, 46]: ≥ 20 µM | Kd [2, 46]: ≥ 20 µM | Kd [3, 46]: ≥ 20 µM | Kd [4, 46]: ≥ 20 µM | Kd [5, 46]: ≥ 20 µM | Kd [6, 46]: ≥ 20 µM | Kd [7, 46]: ≥ 20 µM | Kd [34]: ≥ 20 µM | Kd [35, 46]: ≥ 20 µM | Kd [8, 46]: ≥ 20 µM | Kd [9, 46]: ≥ 20 µM | Kd [25, 46]: ≥ 20 µM | Kd [20, 46]: ≥ 20 µM | Kd [10, 46]: ≥ 20 µM | Kd [11, 46]: ≥ 20 µM | Kd [12, 46]: ≥ 20 µM | Kd [13, 46]: ≥ 20 µM | Kd [14, 46]: ≥ 20 µM | Kd [15, 46]: ≥ 20 µM | Kd [16, 46]: ≥ 20 µM

ERYPGGVSL
Kd [1, 40]: ≥ 20 µM | Kd [2, 40]: ≥ 20 µM | Kd [3, 40]: ≥ 20 µM | Kd [4, 40]: ≥ 20 µM | Kd [5, 40]: ≥ 20 µM | Kd [6, 40]: ≥ 20 µM | Kd [7, 40]: ≥ 20 µM | Kd [35, 40]: ≥ 20 µM | Kd [8, 40]: ≥ 20 µM | Kd [9, 40]: ≥ 20 µM | Kd [25, 40]: ≥ 20 µM | Kd [20, 40]: ≥ 20 µM | Kd [10, 40]: ≥ 20 µM | Kd [11, 40]: ≥ 20 µM | Kd [12, 40]: ≥ 20 µM | Kd [13, 40]: ≥ 20 µM | Kd [14, 40]: ≥ 20 µM | Kd [15, 40]: ≥ 20 µM | Kd [16, 40]: ≥ 20 µM

FQLYPPQIL
Kd [21, 47]: 0.033 µM | Kd [32, 47]: 0.077 µM

AIYDTMQYV
Kd ([2]; source organism: Mycobacterium tuberculosis str. Haarlem): 0.003 µM | Kd ([20]; source organism: Mycobacterium tuberculosis): 0.006 µM | Kd [36]: ≥ 5 µM | Kd [37]: ≥ 5 µM | Kd [38]: ≥ 5 µM

FIILSTGKY
Kd [1, 47]: ≥ 20 µM | Kd [3, 47]: ≥ 20 µM | Kd [4, 47]: ≥ 20 µM | Kd [5, 47]: ≥ 20 µM | Kd [6, 47]: ≥ 20 µM | Kd [7, 47]: ≥ 20 µM | Kd [11, 47]: 0.072 µM | Kd [12, 47]: ≥ 20 µM | Kd [13, 47]: ≥ 20 µM | Kd [39]: ≥ 20 µM | Kd [16, 47]: ≥ 20 µM

LQAMHGFPL
Kd ([32]; source organism: Escherichia coli O157:H7 str. EDL933): 0.0968 µM
